{"source": "patent US20260159585A1", "about": "(SHANGHAI HENLIUS BIOTECH, published 2026)", "binders": {"B1": {"name": "M1 #21 (antibody, V domains shown)", "VH": "QVQLQQWGAGLLKPSETLSLTCAVYGGSFSGYYWSWIRQPPGKGLEWIGEINQSGSTNYNPSLKSRVTISVDTSKNQFSLRLSSVTAADTAMYYCARFTGRPYYGMDVWGQGTTVTVSS", "VL": "SYELTQPPSVSATPGQRVTISCSGSESNIGSHKVKWYQQFAGAAPRLLIHGNDQRFSGVPDRFSGSKSGTSASLAISGLQSEDEADYYCAAWDDSLYGRVFGGGTKLTVL"}}, "key": {"hCD47-His antigen [1]": {"biological_target": "T1, hCD47-His antigen (human, UniProt Q08722 19-139, limits assumed)", "T1 construct": "also called human CD47; not shown: His tag", "assay": "ELISA on coated hCD47-His, HRP anti-human Fc, OD450; plate1"}, "hCD47-His antigen [2]": {"biological_target": "T1, hCD47-His antigen", "assay": "ELISA on coated hCD47-His, HRP anti-human Fc, OD450; plate2"}, "hCD47-His antigen [3]": {"biological_target": "T1, hCD47-His antigen", "assay": "ELISA on coated hCD47-His, HRP anti-human Fc, OD450; plate3"}, "hCD47-His antigen [4]": {"biological_target": "T1, hCD47-His antigen", "assay": "ELISA on coated hCD47-His, HRP anti-human Fc, OD450; plate4"}, "[5]": {"biological_target": "T2, human CD47 expressed on cells (human, UniProt Q08722 19-323)", "T2 construct": "whole, on cells; One molecule for all cell types; also called CD47 on Jurkat cells; CD47 on human red blood cells (RBCs)", "assay": "FACS, whole cell binding to human primary red blood cells, FITC anti-human Fc; lower panel"}, "[6]": {"biological_target": "T2, human CD47 expressed on cells", "assay": "FACS, whole cell binding to human primary red blood cells, FITC anti-human Fc; upper panel"}}}
{"binder": "B1", "values": [{"measurement": "EC50 (read off the curve)", "setting": "hCD47-His antigen [1]", "value": "~0.1", "unit": "nM"}, {"measurement": "EC50 (read off the curve)", "setting": "hCD47-His antigen [2]", "value": "~0.08", "unit": "nM"}, {"measurement": "EC50 (read off the curve)", "setting": "hCD47-His antigen [3]", "value": "~0.1", "unit": "nM"}, {"measurement": "EC50 (read off the curve)", "setting": "hCD47-His antigen [4]", "value": "~0.07", "unit": "nM"}, {"measurement": "EC50 (read off the curve)", "setting": "[5]", "value": "~0.3", "unit": "nM"}, {"measurement": "EC50 (read off the curve)", "setting": "[6]", "value": "~0.2", "unit": "nM"}]}
